Assay results: PMC9564178 (Cells, 2022)

What was measured:
[1] = target: T1, human recombinant TPPP1 (hexaHis fusion) (human, UniProt O94811 1-219); experiment: ELISA; TPPP3 immobilised; recombinant TPPP1 added at different concentrations with extract of non-transfected HeLa cells (0.32 mg/mL); detected by monoclonal TPPP1 antibody; apparent Kd; conditions: both partners purified
T1 construct: human TPPP1 (Tubulin Polymerization Promoting Protein, TPPP/p25), UniProtKB O94811, 219 amino acids; probably the whole 219-residue protein; also called TPPP/p25; source: E. coli BL21 (DE3), isolated on a HIS-Select Cartridge

[2] = target: T1, human recombinant TPPP1 (hexaHis fusion); experiment: ELISA; TPPP3 immobilised (5 μg/mL, PBS); recombinant TPPP1 added at different concentrations, without HeLa extract; detected by monoclonal TPPP1 antibody; apparent Kd, single-site hyperbola; conditions: both partners purified

T1 sequence (O94811 whole entry, the tested form may be a part): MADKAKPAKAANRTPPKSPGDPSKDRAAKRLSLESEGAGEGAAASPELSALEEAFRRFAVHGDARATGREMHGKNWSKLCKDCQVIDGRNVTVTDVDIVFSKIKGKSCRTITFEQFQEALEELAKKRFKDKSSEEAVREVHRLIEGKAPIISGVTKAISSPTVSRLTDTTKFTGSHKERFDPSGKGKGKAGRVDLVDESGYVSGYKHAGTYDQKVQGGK

Kd [1]: 47.7 nM
Kd [2]: 6.53 nM
B1: human recombinant TPPP3 (hexaHis fusion) (natural protein)
chain: AGLEESFRKFAIHGDPKASGQEMNGKNWAKLCKDCKVADGKSVTGTDVDIVFSKVKGKSARVINYEEFKKALEELATKRFKGKSKEEAFDAICQLVAGKEPANVGVTKAKTGGAVDRLTDTSRYTGSHKERFDESGKGKGIAGRQDILDDSGYVSAYKNAGTYDAKVKK
notes: human TPPP3 (Tubulin Polymerization Promoting Protein 3), UniProtKB Q9BW30, 176 amino acids; probably the whole 176-residue protein; also called TPPP/p20; source: E. coli BL21 (DE3), isolated on a HIS-Select Cartridge
